First the molecules themselves.
B1: Calcium-binding and coiled-coil domain-containing protein 2 (Homo sapiens), Q13137 (parent)
chain: MEETIKDPPTSAVLLDHCHFSQVIFNSVEKFYIPGGDVTCHYTFTQHFIPRRKDWIGIFRVGWKTTREYYTFMWVTLPIDLNNKSAKQQEVQFKAYYLPKDDEYYQFCYVDEDGVVRGASIPFQFRPENEEDILVVTTQGEVEEIEQHNKELCKENQELKDSCISLQKQNSDMQAELQKKQEELETLQSINKKLELKVKEQKDYWETELLQLKEQNQKMSSENEKMGIRVDQLQAQLSTQEKEMEKLVQGDQDKTEQLEQLKKENDHLFLSLTEQRKDQKKLEQTVEQMKQNETTAMKKQQELMDENFDLSKRLSENEIICNALQRQKERLEGENDLLKRENSRLLSYMGLDFNSLPYQVPTSDEGGARQNPGLAYGNPYSGIQESSSPSPLSIKKCPICKADDICDHTLEQQQMQPLCFNCPICDKIFPATEKQIFEDHVFCHSL
partner: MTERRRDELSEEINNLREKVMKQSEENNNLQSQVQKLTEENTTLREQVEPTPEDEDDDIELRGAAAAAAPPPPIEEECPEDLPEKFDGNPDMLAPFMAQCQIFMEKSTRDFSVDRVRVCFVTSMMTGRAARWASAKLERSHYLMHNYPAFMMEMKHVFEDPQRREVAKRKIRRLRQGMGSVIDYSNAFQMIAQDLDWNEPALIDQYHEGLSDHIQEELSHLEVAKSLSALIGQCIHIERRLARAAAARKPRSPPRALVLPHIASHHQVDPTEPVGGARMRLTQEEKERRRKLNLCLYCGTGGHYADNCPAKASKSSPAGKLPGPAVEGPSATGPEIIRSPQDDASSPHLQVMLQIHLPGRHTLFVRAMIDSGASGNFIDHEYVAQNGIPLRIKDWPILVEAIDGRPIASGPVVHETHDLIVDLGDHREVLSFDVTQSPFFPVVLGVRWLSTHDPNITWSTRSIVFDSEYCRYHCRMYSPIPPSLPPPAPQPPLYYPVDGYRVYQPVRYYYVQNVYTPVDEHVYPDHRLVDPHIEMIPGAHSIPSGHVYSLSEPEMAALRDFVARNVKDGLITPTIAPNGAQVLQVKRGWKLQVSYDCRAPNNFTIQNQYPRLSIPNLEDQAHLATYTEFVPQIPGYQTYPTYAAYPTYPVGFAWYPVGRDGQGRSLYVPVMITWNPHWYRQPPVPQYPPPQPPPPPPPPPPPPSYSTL
B2: Syntaxin-binding protein 4 (Homo sapiens), Q6ZWJ1 (parent)
chain: MNKNTSTVVSPSLLEKDPAFQMITIAKETGLGLKVLGGINRNEGPLVYIQEIIPGGDCYKDGRLKPGDQLVSVNKESMIGVSFEEAKSIITGAKLRLESAWEIAFIRQKSDNIQPENLSCTSLIEASGEYGPQASTLSLFSSPPEILIPKTSSTPKTNNDILSSCEIKTGYNKTVQIPITSENSTVGLSNTDVASAWTENYGLQEKISLNPSVRFKAEKLEMALNYLGIQPTKEQHQALRQQVQADSKGTVSFGDFVQVARNLFCLQLDEVNVGAHEISNILDSQLLPCDSSEADEMERLKCERDDALKEVNTLKEKLLESDKQRKQLTEELQNVKQEAKAVVEETRALRSRIHLAEAAQRQAHGMEMDYEEVIRLLEAKITELKAQLADYSDQNKESVQDLKKRIMVLDCQLRKSEMARKTFEASTEKLLHFVEAIQEVFSDNSTPLSNLSERRAVLASQTSLTPLGRNGRSIPATLALESKELVKSVRALLDMDCLPYGWEEAYTADGIKYFINHVTQTTSWIHPVMSVLNLSRSEENEEDCSRELPNQKS
partner: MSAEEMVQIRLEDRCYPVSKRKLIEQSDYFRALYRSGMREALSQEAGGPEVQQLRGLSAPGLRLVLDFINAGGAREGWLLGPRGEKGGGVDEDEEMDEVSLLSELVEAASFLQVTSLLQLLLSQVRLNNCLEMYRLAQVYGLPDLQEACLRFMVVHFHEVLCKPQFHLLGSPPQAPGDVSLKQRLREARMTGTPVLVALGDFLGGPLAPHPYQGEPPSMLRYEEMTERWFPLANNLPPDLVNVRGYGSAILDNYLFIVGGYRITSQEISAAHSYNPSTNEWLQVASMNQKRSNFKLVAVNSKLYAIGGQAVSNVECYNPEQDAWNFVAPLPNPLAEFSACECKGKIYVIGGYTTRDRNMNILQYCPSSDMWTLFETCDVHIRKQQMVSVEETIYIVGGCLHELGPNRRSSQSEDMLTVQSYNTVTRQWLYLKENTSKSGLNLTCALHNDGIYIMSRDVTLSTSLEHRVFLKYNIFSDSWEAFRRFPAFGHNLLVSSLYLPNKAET
B3: Progranulin (Homo sapiens), P28799 (parent)
chain: MWTLVSWVALTAGLVAGTRCPDGQFCPVACCLDPGGASYSCCRPLLDKWPTTLSRHLGGPCQVDAHCSAGHSCIFTVSGTSSCCPFPEAVACGDGHHCCPRGFHCSADGRSCFQRSGNNSVGAIQCPDSQFECPDFSTCCVMVDGSWGCCPMPQASCCEDRVHCCPHGAFCDLVHTRCITPTGTHPLAKKLPAQRTNRAVALSSSVMCPDARSRCPDGSTCCELPSGKYGCCPMPNATCCSDHLHCCPQDTVCDLIQSKCLSKENATTDLLTKLPAHTVGDVKCDMEVSCPDGYTCCRLQSGAWGCCPFTQAVCCEDHIHCCPAGFTCDTQKGTCEQGPHQVPWMEKAPAHLSLPDPQALKRDVPCDNVSSCPSSDTCCQLTSGEWGCCPIPEAVCCSDHQHCCPQGYTCVAEGQCQRGSEIVAGLEKMPARRASLSHPRDIGCDQHTSCPVGQTCCPSLGGSWACCQLPHAVCCEDRQHCCPAGYTCNVKARSCEKEVVSAQPATFLARSPHVGVKDVECGEGHFCHDNQTCCRDNRQGWACCPYRQGVCCADRRHCCPAGFRCAARGTKCLRREAPRWDAPLRDPALRQLL
partner: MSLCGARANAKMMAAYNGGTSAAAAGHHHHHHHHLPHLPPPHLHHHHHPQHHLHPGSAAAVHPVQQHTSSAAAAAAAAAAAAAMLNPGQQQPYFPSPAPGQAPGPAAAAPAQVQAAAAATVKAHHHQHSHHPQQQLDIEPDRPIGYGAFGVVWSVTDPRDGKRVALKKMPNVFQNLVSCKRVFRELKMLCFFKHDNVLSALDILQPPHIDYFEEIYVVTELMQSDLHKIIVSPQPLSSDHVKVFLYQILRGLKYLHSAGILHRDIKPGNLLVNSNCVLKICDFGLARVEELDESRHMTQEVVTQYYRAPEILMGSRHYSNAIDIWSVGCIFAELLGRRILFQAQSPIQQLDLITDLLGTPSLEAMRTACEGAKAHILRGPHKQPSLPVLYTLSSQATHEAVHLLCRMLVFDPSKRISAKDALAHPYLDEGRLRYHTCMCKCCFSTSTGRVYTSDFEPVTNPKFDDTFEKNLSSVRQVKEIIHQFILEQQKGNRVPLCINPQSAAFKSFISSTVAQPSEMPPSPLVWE
B4: Ubiquitin thioesterase OTUB2 (Homo sapiens), Q96DC9 (parent)
chain: MSETSFNLISEKCDILSILRDHPENRIYRRKIEELSKRFTAIRKTKGDGNCFYRALGYSYLESLLGKSREIFKFKERVLQTPNDLLAAGFEEHKFRNFFNAFYSVVELVEKDGSVSSLLKVFNDQSASDHIVQFLRLLTSAFIRNRADFFRHFIDEEMDIKDFCTHEVEPMATECDHIQITALSQALSIALQVEYVDEMDTALNHHVFPEAATPSVYLLYKTSHYNILYAADKH
partner: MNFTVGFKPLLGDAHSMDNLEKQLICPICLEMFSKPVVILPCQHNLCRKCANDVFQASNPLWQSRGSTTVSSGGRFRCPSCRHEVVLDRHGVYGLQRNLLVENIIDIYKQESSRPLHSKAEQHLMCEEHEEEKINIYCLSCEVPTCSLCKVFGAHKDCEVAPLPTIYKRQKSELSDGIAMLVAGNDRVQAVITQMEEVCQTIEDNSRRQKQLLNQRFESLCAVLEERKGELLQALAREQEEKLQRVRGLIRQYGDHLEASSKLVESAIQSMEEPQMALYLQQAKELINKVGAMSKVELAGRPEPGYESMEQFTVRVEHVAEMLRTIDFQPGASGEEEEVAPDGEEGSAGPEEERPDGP

Results on five variants are retold here after IntAct's records for PubMed 31515488.

The variants in the first assay derive from B1. Particulars: with peg10_human PEG10, Q86TG7.
Take T273A: the “effect of a mutation on the interaction” value is “with no effect”.

On to P389A, for which the “effect of a mutation on the interaction” value is recorded as “with no effect”.

In another assay the parent is B2. Conditions: with klh42_human KLHL42, Q9P2K6.
As to C120R, the “effect of a mutation on the interaction” value was “with no effect”.

In another assay the parent is B3. Conditions: with nlk_human NLK.
Consider R19W, for which the “effect of a mutation on the interaction” value is reported as “with no effect”.

The variants in another assay derive from B4. Conditions: with tri54_human TRIM54, Q9BYV2.
With R146P, the “effect of a mutation on the interaction” value is recorded as “disrupting interaction strength”.
